We go through one substance from US10864269B2, “Therapeutic combinations comprising anti-CD73 antibodies and uses thereof” (MedImmune Limited, priority 2014, dated 2020).

As usually defined, the Kd is a measure of binding affinity in units of concentration.

The target of this test is T1, native CD73, 4T1 cells (Mus musculus, UniProt Q61503).
T1 construct: native CD73 expressed on human, murine, and cynomolgus monkey cell lines; endogenous in cells; host or cells: 4T1
T1 sequence (Q61503 29-551): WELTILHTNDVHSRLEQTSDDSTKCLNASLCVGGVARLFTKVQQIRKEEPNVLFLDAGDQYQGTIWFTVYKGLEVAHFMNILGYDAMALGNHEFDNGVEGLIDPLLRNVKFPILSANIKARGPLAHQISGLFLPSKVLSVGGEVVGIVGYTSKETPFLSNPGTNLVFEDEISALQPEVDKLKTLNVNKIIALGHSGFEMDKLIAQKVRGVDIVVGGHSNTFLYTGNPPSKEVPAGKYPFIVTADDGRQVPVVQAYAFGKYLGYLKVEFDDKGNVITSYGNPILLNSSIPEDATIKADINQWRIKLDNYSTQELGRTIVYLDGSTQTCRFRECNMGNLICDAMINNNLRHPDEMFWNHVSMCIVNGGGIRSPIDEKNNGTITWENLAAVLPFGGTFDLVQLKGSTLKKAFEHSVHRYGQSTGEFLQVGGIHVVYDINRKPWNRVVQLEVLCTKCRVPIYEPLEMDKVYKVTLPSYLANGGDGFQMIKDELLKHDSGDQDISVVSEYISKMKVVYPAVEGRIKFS
As to the kind of experiment: Flow cytometry binding to native CD73, 4T1 cells. Particulars: as measured by flow cytometry; read-out: KD, CD73 on the surface of murine 3T1 cells. The protocol: Binding of MEDI9447 to native CD73 expressed on human, murine, and cynomolgus monkey cell lines was characterized by flow cytometry. The cells were incubated with various concentrations of MEDI9447 and antibody binding was monitored with and fluorophore-labeled anti-human Fc antibody. A plot of the median fluorescence intensity as a function of the MEDI9447 concentration was fitted nonlinearly using a one-site binding isotherm model to calculate the equilibrium dissociation constant.
The affinity of enhanced anti-CD73 antibodies (in IgG1-TM format) to human, murine, and cynomolgus CD73 was determined by flow cytometry and surface plasmon resonsance (SPR) (Table 13). The enhanced antibodies had pM affinity to cellular and recombinant CD73 from the three species.
All flow cytometry experiments were run at 4C and reagents were prepared in PBS/1% FBS buffer. 10,000 cells were incubated with test antibody in 50 uL volume for 4 hours. Cells were washed twice and incubated in 50 uL goat anti-human IgGFc-AlexaFluor647 conjugate for 15 minutes. Cells were washed, resuspended in buffer supplemented with Dapi, and analyzed on a flow cytometer. […] For the determination of KD values, a plot of the median fluorescence intensity as a function of test antibody concentration was fitted nonlinearly using a one site binding isotherm model.
On the technique in general: A flow cytometer gives signals particle by particle.

For “MEDI9447: IgG1 with CD730010-derived VL of SEQ ID NO: 68 and VH of SEQ ID NO: 82”, the equilibrium dissociation constant (Kd) was approximately 0.11 nM.
